Test results from patent US20190284243A1, “BINDING PEPTIDES” (University of Copenhagen, priority 2016, published 2019).
Each block holds one substance with its values, some of them ahead of it. Bridge positions count the residues as written; N and C are the ends. Square brackets hold non-standard residues; d marks the D form. Ends that are not written are not given here. dPra = C#CC[C@@H](N)C(=O)O

Key:
Il10 = Il10 (Homo sapiens, UniProt P22301); experiment: Binding of β-bodies with the target compound (Table 1), Il10; conditions: Purpose Il10; tested for binding with the target compound
HRMVRG-PEGA1900 = experiment: Binding to hexapeptide beads, green fluorescence associated with the beads; conditions: protein overexpressed in E. coli
Description: The fusion protein as well as EGFP was overexpressed in E. coli and purified from the cell lysate using a PEGA solid support with the hexapeptide partner, […] NO: 4), attached.

Papain = molecular target: T1, Papain (Carica papaya, UniProt P00784); experiment: Binding of β-bodies with the target compound (Table 1), Papain; conditions: Purpose Papain; tested for binding with the target compound
T1 sequence (P00784 134-345): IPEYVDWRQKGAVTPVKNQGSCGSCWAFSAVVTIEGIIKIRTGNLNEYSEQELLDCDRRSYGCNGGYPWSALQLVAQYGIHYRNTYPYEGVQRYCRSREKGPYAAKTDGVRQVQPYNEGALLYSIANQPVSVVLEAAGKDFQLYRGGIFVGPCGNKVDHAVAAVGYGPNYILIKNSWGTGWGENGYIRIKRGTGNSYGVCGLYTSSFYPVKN

Il2 = Il2 (Homo sapiens, UniProt P60568); experiment: Binding of β-bodies with the target compound (Table 1), Il2; conditions: Purpose Il2; tested for binding with the target compound
Interleukin 2 = Interleukin 2 (Homo sapiens, UniProt P60568); experiment: Sandwich binding assay on PEGA beads, IL2 model
Method: For sandwich assays β-bodies identified as described in Examples 1 and 2 were synthesized by standard Fmoc-based solid phase peptide synthesis on biocompatible PEGA-beads (e.g. PEGA1900 which has a porosity allowing penetration of proteins up to 70 kDa). PEGA beads are available from Sigma Aldrich.
The sandwich binding assay was performed as follows: four beads with ligand C prepared as described above were added to 50 μL MilliQ water in a microtiter well containing 100 nM of the peptide D. The well was imaged with an ICX73 fluorescence microscope (Olympus) using a ROX filter cube.
The intensity of the fluorescence is a measure of the concentration of IL2 and the affinity of the interaction. The result obtained after 3 min. incubation is shown in FIG. 10 and after 20 min. incubation in FIG. 1D.

GFP = GFP 60 nM, both bead types incubated at the same time
Method: GFP (60 nM) was incubated with different β-body beads at the same time, a first type of β-body beads specific for GFP (β-body SEQ ID NO: 1;
[…]) and a second type of β-body beads specific for IL1 (β-body SEQ ID NO: 5).

Il1 = experiment: Selectivity assay GFP vs. IL1: beads incubated with ROX-IL1; type: binding; conditions: ROX-IL1 100 nM, both bead types incubated at the same time
Description: The same experiment was repeated with IL1.

eGFP = eGFP (Aequorea victoria, UniProt P42212, F64L/H231L/S65T); conditions: Purpose eGFP; tested for binding with the target compound
[1] = ligand 3 beads + 100 nM ligand 4, Interleukin 2 50 nM, 3 and 20 min
[2] = ligand 3 beads + 100 nM ligand 4, without IL2 (interaction between the two β-bodies)

Chain of Interleukin 2 (P60568 21-153, species assumed): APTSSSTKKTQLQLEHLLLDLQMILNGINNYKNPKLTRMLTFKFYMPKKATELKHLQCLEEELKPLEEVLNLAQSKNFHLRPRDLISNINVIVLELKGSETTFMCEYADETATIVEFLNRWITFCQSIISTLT
Chain of Il10 (P22301 19-178, species assumed): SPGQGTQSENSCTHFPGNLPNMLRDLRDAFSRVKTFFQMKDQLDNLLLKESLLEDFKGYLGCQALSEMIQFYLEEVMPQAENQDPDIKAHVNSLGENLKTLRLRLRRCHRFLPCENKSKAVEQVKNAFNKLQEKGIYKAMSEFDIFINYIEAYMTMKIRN
Chain of Il2 (P60568 21-153, species assumed): as the sequence (P60568 21-153, species assumed) above

Substance: EGFP: Enhanced Green Fluorescent Protein, overexpressed in E. coli; control without β-body
- Binding to HRMVRG-PEGA1900 (green fluorescence associated with the beads) (HRMVRG-PEGA1900): does not

Substance: IHV-abu(N3)-VTTRTMPGHPIAGADA-pra-TG (IHV[dAbu(N3)]VTTRTMPGHPIAGADA[dPra]TG; triazole 4-21 (inferred); also: X4 listed as D-3-azido-2-aminobutanoic acid, mods say azidohomoalanine) [SEQ ID NO: 49]
- Binding (Papain): Medium

Substance: TETKTVTITRPKMTWTFTHTVTG (Designed peptide; PEPTIDE (1)..(23) GFP) [SEQ ID NO: 1]
- Binding of β-body beads to GFP (GFP): underwent binding
- Binding of β-body beads to IL1 (Il1): only β-body beads specific for IL1 underwent binding
- Binding (eGFP): High

Substance: TRTLTYTEPGITQTKTEA (Designed peptide) [SEQ ID NO: 14]
- Binding (Il2): High
- ROX fluorescence accumulation in the beads (Interleukin 2; [1]): positive signal
- ROX fluorescence accumulation in the beads (Interleukin 2; ligand 3 beads + 100 nM ligand 4, Interleukin 2 50 nM, 3 and 20 min, listed as D): accumulation of significant ROX fluorescence
- ROX fluorescence accumulation in the beads (Interleukin 2; [2]): no signal
- ROX fluorescence accumulation in the beads (Interleukin 2; ligand 3 beads + 100 nM ligand 4, without IL2 (interaction between the two β-bodies), listed as D): No fluorescence accumulation over background

The next lines start with results.

- Binding (Il10): High
Substance: ATNTLTMTWPGRTNTDTFTW (Designed peptide) [SEQ ID NO: 20]

- Binding (Il2): High
- ROX fluorescence accumulation in the beads (Interleukin 2; [1]): positive signal
- ROX fluorescence accumulation in the beads (Interleukin 2; [2]): no signal
Substance: NTVTNTMTRPGVTETVTQTD (Designed peptide) [SEQ ID NO: 15]
- ROX fluorescence accumulation in the beads (Interleukin 2; ligand 3 beads + 100 nM ligand 4, Interleukin 2 50 nM, 3 and 20 min, listed as C): accumulation of significant ROX fluorescence
- ROX fluorescence accumulation in the beads (Interleukin 2; ligand 3 beads + 100 nM ligand 4, without IL2 (interaction between the two β-bodies), listed as C): No fluorescence accumulation over background

- Binding (Il10): High
Substance: TKTRTYTIPGERYTDTWA (Designed peptide) [SEQ ID NO: 21]
